± gives the standard deviation of the averaged measurements.
B1: library; a variant is named by its letters at N, in order (parent)
chain: GCUGUCACCGGUGUAUUACCCUAGUGGUCGACCGGUCUGAUGAGUCUNNNNNNAGACGAAACAGC

How the values were obtained:
hypoxanthine [1] = variants of: B1; assay: normalized RNA/DNA level with ligand (relative to sTRSVctl = 100) (log10 (% of sTRSVctl)); ligand: hypoxanthine (xanthine aptamer); higher = less ribozyme self-cleavage, higher mRNA level; details: ligand concentration (+) RNA-Seq: 5 mM, HEK293T, reporter: mCherry (pCS4076), ligand present: yes
Summary of the method: (§1)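 For each 6-well well, 4 µg of library plasmid encoding mCherry-linked ribozyme switches, or eGFP-linked ones in some ligand experiments, was transfected into HEK293T. Any ligand was added 1 h before transfection, and RNA was extracted with EDTA 72 h after it, then reverse-transcribed, amplified, barcoded and sequenced. RNA level was obtained by dividing RNA reads by DNA reads, normalizing to a spiked-in non-cleaving sequence or to the top sequences, then scaling and log-transforming. The top set was 25 sequences, scaling was ×100 with log10, and ≥100 DNA reads were required.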

hypoxanthine [2] = variants of: B1; assay: normalized RNA/DNA level without ligand (relative to sTRSVctl = 100) (log10 (% of sTRSVctl)); ligand: hypoxanthine (xanthine aptamer); higher = less ribozyme self-cleavage, higher mRNA level; details: HEK293T, reporter: mCherry (pCS4076), ligand present: no
Summary of the method: as §1

Variant	normalized RNA/DNA level with ligand (log10) (hypoxanthine [1])	normalized RNA/DNA level without ligand (log10) (hypoxanthine [2])
GCUGUCACCGGUGUAUUACCCUAGUGGUCGACCGGUCUGAUGAGUCUGACGCGAGACGAAACAGC [GACGCG]	1.872 ± 0.0041	1.51 ± 0.11
GCUGUCACCGGUGUAUUACCCUAGUGGUCGACCGGUCUGAUGAGUCUGACGCCAGACGAAACAGC [GACGCC]	1.9 ± 0.04	1.79 ± 0.054
GCUGUCACCGGUGUAUUACCCUAGUGGUCGACCGGUCUGAUGAGUCUGACGCAAGACGAAACAGC [GACGCA]	1.91 ± 0.052	1.82 ± 0.034
GCUGUCACCGGUGUAUUACCCUAGUGGUCGACCGGUCUGAUGAGUCUGACUAGAGACGAAACAGC [GACUAG]	1.837 ± 0.011	1.47 ± 0.045
GCUGUCACCGGUGUAUUACCCUAGUGGUCGACCGGUCUGAUGAGUCUGACUACAGACGAAACAGC [GACUAC]	1.94 ± 0.026	1.804 ± 0.0039
GCUGUCACCGGUGUAUUACCCUAGUGGUCGACCGGUCUGAUGAGUCUUACUACAGACGAAACAGC [UACUAC]	1.95 ± 0.056	1.926 ± 0.0063
GCUGUCACCGGUGUAUUACCCUAGUGGUCGACCGGUCUGAUGAGUCUUACUAUAGACGAAACAGC [UACUAU]	1.89 ± 0.027	1.83 ± 0.05
GCUGUCACCGGUGUAUUACCCUAGUGGUCGACCGGUCUGAUGAGUCUCACGUGAGACGAAACAGC [CACGUG]	1.92 ± 0.028	1.79 ± 0.095
GCUGUCACCGGUGUAUUACCCUAGUGGUCGACCGGUCUGAUGAGUCUCACGUUAGACGAAACAGC [CACGUU]	1.96 ± 0.024	1.864 ± 0.0061
GCUGUCACCGGUGUAUUACCCUAGUGGUCGACCGGUCUGAUGAGUCUCACGUCAGACGAAACAGC [CACGUC]	1.98 ± 0.061	1.971 ± 0.005
GCUGUCACCGGUGUAUUACCCUAGUGGUCGACCGGUCUGAUGAGUCUCACUCAAGACGAAACAGC [CACUCA]	1.93 ± 0.024	1.89 ± 0.033
GCUGUCACCGGUGUAUUACCCUAGUGGUCGACCGGUCUGAUGAGUCUCACUCCAGACGAAACAGC [CACUCC]	1.93 ± 0.021	1.92 ± 0.063
GCUGUCACCGGUGUAUUACCCUAGUGGUCGACCGGUCUGAUGAGUCUAACGCAAGACGAAACAGC [AACGCA]	1.9072 ± 0.0004	1.76 ± 0.03
GCUGUCACCGGUGUAUUACCCUAGUGGUCGACCGGUCUGAUGAGUCUGACUCAAGACGAAACAGC [GACUCA]	1.97 ± 0.029	1.892 ± 0.0056
GCUGUCACCGGUGUAUUACCCUAGUGGUCGACCGGUCUGAUGAGUCUCACGAUAGACGAAACAGC [CACGAU]	1.95 ± 0.027	1.78 ± 0.043
GCUGUCACCGGUGUAUUACCCUAGUGGUCGACCGGUCUGAUGAGUCUUACGGUAGACGAAACAGC [UACGGU]	1.847 ± 0.0077	1.59 ± 0.064
GCUGUCACCGGUGUAUUACCCUAGUGGUCGACCGGUCUGAUGAGUCUUACGCGAGACGAAACAGC [UACGCG]	1.893 ± 0.018	1.62 ± 0.069
GCUGUCACCGGUGUAUUACCCUAGUGGUCGACCGGUCUGAUGAGUCUUACGCUAGACGAAACAGC [UACGCU]	1.95 ± 0.067	1.846 ± 0.012
GCUGUCACCGGUGUAUUACCCUAGUGGUCGACCGGUCUGAUGAGUCUUACGCCAGACGAAACAGC [UACGCC]	2 ± 0.079	1.82 ± 0.036
GCUGUCACCGGUGUAUUACCCUAGUGGUCGACCGGUCUGAUGAGUCUGACGGGAGACGAAACAGC [GACGGG]	1.885 ± 0.0056	1.41 ± 0.039
GCUGUCACCGGUGUAUUACCCUAGUGGUCGACCGGUCUGAUGAGUCUGACGGCAGACGAAACAGC [GACGGC]	1.95 ± 0.07	1.63 ± 0.055

Variant	normalized RNA/DNA level with ligand (log10) (hypoxanthine [1])	normalized RNA/DNA level without ligand (log10) (hypoxanthine [2])
GCUGUCACCGGUGUAUUACCCUAGUGGUCGACCGGUCUGAUGAGUCUGACGGUAGACGAAACAGC [GACGGU]	1.95 ± 0.036	1.797 ± 0.0024
GCUGUCACCGGUGUAUUACCCUAGUGGUCGACCGGUCUGAUGAGUCUGACGGAAGACGAAACAGC [GACGGA]	1.92 ± 0.047	1.683 ± 0.0063
GCUGUCACCGGUGUAUUACCCUAGUGGUCGACCGGUCUGAUGAGUCUCACUAGAGACGAAACAGC [CACUAG]	1.901 ± 0.0088	1.759 ± 0.0057
GCUGUCACCGGUGUAUUACCCUAGUGGUCGACCGGUCUGAUGAGUCUCACUAUAGACGAAACAGC [CACUAU]	1.908 ± 0.018	1.845 ± 0.013
GCUGUCACCGGUGUAUUACCCUAGUGGUCGACCGGUCUGAUGAGUCUCACUACAGACGAAACAGC [CACUAC]	1.9 ± 0.07	1.8 ± 0.034
GCUGUCACCGGUGUAUUACCCUAGUGGUCGACCGGUCUGAUGAGUCUAACUCAAGACGAAACAGC [AACUCA]	1.975 ± 0.012	1.88 ± 0.023
GCUGUCACCGGUGUAUUACCCUAGUGGUCGACCGGUCUGAUGAGUCUAACUCCAGACGAAACAGC [AACUCC]	2 ± 0.067	1.922 ± 0.011
GCUGUCACCGGUGUAUUACCCUAGUGGUCGACCGGUCUGAUGAGUCUCACGGGAGACGAAACAGC [CACGGG]	1.84 ± 0.033	1.32 ± 0.019
GCUGUCACCGGUGUAUUACCCUAGUGGUCGACCGGUCUGAUGAGUCUCACGGCAGACGAAACAGC [CACGGC]	1.965 ± 0.003	1.87 ± 0.013
GCUGUCACCGGUGUAUUACCCUAGUGGUCGACCGGUCUGAUGAGUCUCACGGAAGACGAAACAGC [CACGGA]	1.912 ± 0.0058	1.8 ± 0.048
GCUGUCACCGGUGUAUUACCCUAGUGGUCGACCGGUCUGAUGAGUCUAACGUUAGACGAAACAGC [AACGUU]	1.91 ± 0.0075	1.829 ± 0.017
GCUGUCACCGGUGUAUUACCCUAGUGGUCGACCGGUCUGAUGAGUCUGACGUCAGACGAAACAGC [GACGUC]	1.95 ± 0.046	1.85 ± 0.019
GCUGUCACCGGUGUAUUACCCUAGUGGUCGACCGGUCUGAUGAGUCUGACGUGAGACGAAACAGC [GACGUG]	1.83 ± 0.095	1.29 ± 0.024
GCUGUCACCGGUGUAUUACCCUAGUGGUCGACCGGUCUGAUGAGUCUGACGUAAGACGAAACAGC [GACGUA]	1.92 ± 0.033	1.773 ± 0.0082
GCUGUCACCGGUGUAUUACCCUAGUGGUCGACCGGUCUGAUGAGUCUUACGUUAGACGAAACAGC [UACGUU]	1.956 ± 0.0074	1.86 ± 0.042
GCUGUCACCGGUGUAUUACCCUAGUGGUCGACCGGUCUGAUGAGUCUUACGUAAGACGAAACAGC [UACGUA]	1.88 ± 0.09	1.829 ± 0.004
GCUGUCACCGGUGUAUUACCCUAGUGGUCGACCGGUCUGAUGAGUCUUACGUGAGACGAAACAGC [UACGUG]	1.86 ± 0.063	1.6 ± 0.009
GCUGUCACCGGUGUAUUACCCUAGUGGUCGACCGGUCUGAUGAGUCUUACGUCAGACGAAACAGC [UACGUC]	2.0228 ± 0.00028	1.94 ± 0.051
GCUGUCACCGGUGUAUUACCCUAGUGGUCGACCGGUCUGAUGAGUCUCACGCGAGACGAAACAGC [CACGCG]	1.9257 ± 1.5e-05	1.88 ± 0.029
GCUGUCACCGGUGUAUUACCCUAGUGGUCGACCGGUCUGAUGAGUCUCACGCCAGACGAAACAGC [CACGCC]	1.99 ± 0.047	1.839 ± 0.015
GCUGUCACCGGUGUAUUACCCUAGUGGUCGACCGGUCUGAUGAGUCUCACGCAAGACGAAACAGC [CACGCA]	1.92 ± 0.054	1.81 ± 0.041
